Measurements published in patent publication US20260242478A1 (published 2026).

Columns and labels:
[1] = molecular target: T1, Peptide-124; test: binding ELISA, biotinylated peptide on neutravidin plate, Fab titrated
T1 peptide: YCEGHSQENIWKCL

[2] = molecular target: T2, Peptide-117; test: as above
T2 peptide: YCEGHSPEYILKCL

[3] = molecular target: T3, Peptide-133; test: as above
T3 peptide: YCEGHLPEYLEKCV

[4] = molecular target: T4, Peptide-123; test: as above
T4 peptide: YCEGHAPEYIWKCL

[5] = molecular target: T5, Peptide-136; test: as above
T5 peptide: YCEGHAPEYIGKCL

[6] = molecular target: T6, Peptide-125; test: as above
T6 peptide: YCEGHLPEYLGKCL

[7] = molecular target: T7, Peptide-119; test: as above
T7 peptide: YCEGHEGIYFWKCL

[8] = molecular target: T8, Peptide-121; test: as above
T8 peptide: YCEGHAPEYIAKCL

[9] = molecular target: T9, Peptide-128; test: as above
T9 peptide: YCEGHSQEYLWKCL

[10] = molecular target: T10, Peptide-132; test: as above
T10 peptide: YCEGHLPEYRNKCL

[11] = molecular target: T11, Peptide-120; test: as above
T11 peptide: YCEGHLPEYIEKCL

[12] = molecular target: T12, Peptide-87; test: as above
T12 peptide: YCAGHAWQYINKCL

[13] = molecular target: T13, Peptide-118; test: as above
T13 peptide: YCEGHRPEYILKCL

[14] = molecular target: T14, Peptide-129; test: as above
T14 peptide: YCEGHSSEYIQKCL

[15] = molecular target: T15, Peptide-122; test: as above
T15 peptide: YCEGHAPEYIRKCL

[16] = molecular target: T16, Peptide-134; test: as above
T16 peptide: YCEGHLPEYIQKCL

[17] = molecular target: T17, Peptide-135; test: as above
T17 peptide: YCEGHLPEYIWKCL

[18] = molecular target: T18, Peptide-126; test: as above
T18 peptide: YCEGHLPEYREKCL

[19] = molecular target: T19, Peptide-127; test: as above
T19 peptide: YCEGHLPEYLAKCL

[20] = molecular target: T20, Peptide-137; test: as above
T20 peptide: TCSAGATWPWPICL

[21] = molecular target: T21, Peptide-146; test: as above
T21 peptide: TCSAGAAYSWPACF

[22] = molecular target: T22, Peptide-142; test: as above
T22 peptide: TCAAGATWSWPACF

[23] = molecular target: T23, Peptide-153; test: as above
T23 peptide: TCAAGATYLWPTCL

[24] = molecular target: T24, Peptide-152; test: as above
T24 peptide: TCSAGATWAWPLCF

[25] = molecular target: T25, Peptide-148; test: as above
T25 peptide: SCSAGAHYPWPQCF

[26] = molecular target: T26, Peptide-92; test: as above
T26 peptide: SCAAGASYAWPYCL

[27] = molecular target: T27, Peptide-139; test: as above
T27 peptide: TCSAGASYPWPLCL

[28] = molecular target: T28, Peptide-147; test: as above
T28 peptide: LCAAGATYPWPTCL

[29] = molecular target: T29, Peptide-145; test: as above
T29 peptide: TCSAGAAYPWPLCL

[30] = molecular target: T30, Peptide-140; test: as above
T30 peptide: TCAAGAAWPWPQCL

[31] = molecular target: T31, Peptide-141; test: as above
T31 peptide: TCSAGATYTWPKCF

[32] = molecular target: T32, Peptide-150; test: as above
T32 peptide: TCSAGAHYPWPICL

[33] = molecular target: T8, Peptide-121; test: BLI (Octet), biotinylated peptide on sensor, Fab in solution
[34] = molecular target: T10, Peptide-132; test: as above
[35] = molecular target: T11, Peptide-120; test: as above
[36] = molecular target: T12, Peptide-87; test: as above
[37] = molecular target: T16, Peptide-134; test: as above
[38] = molecular target: T17, Peptide-135; test: as above
[39] = molecular target: T18, Peptide-126; test: as above
[40] = molecular target: T19, Peptide-127; test: as above

B1: anti-CD28 Fab (Fab, V domains shown)
VH: QVQLVQSGAEVKKPGASVKVSCKASGYTFTSYYIHWVRQAPGQGLEWIGSIYPGNVNTNYNEKFKDRATLTVDTSISTAYMELSRLRSDDTAVYFCTRSHYGLDWNFDVWGQGTTVTVSS
VL: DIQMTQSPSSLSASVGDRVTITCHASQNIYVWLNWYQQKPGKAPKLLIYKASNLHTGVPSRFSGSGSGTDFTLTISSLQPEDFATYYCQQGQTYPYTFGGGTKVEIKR
Q: With B1 as the binder, how does the EC50 [1] read?
A: 28.1 nM

Q: And the EC50 [2]?
A: 11 nM

Q: And the EC50 [3]?
A: 32.5 nM

Q: And the EC50 [4]?
A: 8.1 nM

Q: And the EC50 [5]?
A: 44.9 nM

Q: And the EC50 [6]?
A: 12.1 nM

Q: What about the EC50 [7] of the same binder?
A: 128 nM

Q: And the EC50 [8]?
A: 7.1 nM

Q: What about the EC50 [9] of the same binder?
A: 59.4 nM

Q: And the EC50 [10]?
A: 3.2 nM

Q: And the EC50 [11]?
A: 3.1 nM

Q: What about the EC50 [12] of the same binder?
A: 30.6 nM

Q: And the EC50 [13]?
A: 65.8 nM

Q: And the EC50 [14]?
A: 30.5 nM

Q: What about the EC50 [15] of the same binder?
A: 7.8 nM

Q: And the EC50 [16]?
A: 1.3 nM

Q: And the EC50 [17]?
A: 2.1 nM

Q: What about the EC50 [18] of the same binder?
A: 3.4 nM

Q: And the EC50 [19]?
A: 1.7 nM

Q: And the EC50 [20]?
A: 2.1 nM

Q: What about the EC50 [21] of the same binder?
A: 24.3 nM

Q: And the EC50 [22]?
A: 4.5 nM

Q: What about the EC50 [23] of the same binder?
A: 20.5 nM

Q: And the EC50 [24]?
A: 15.6 nM

Q: And the EC50 [25]?
A: 19 nM

Q: And the EC50 [26]?
A: 18.9 nM

Q: What about the EC50 [27] of the same binder?
A: 5.3 nM

Q: What about the EC50 [28] of the same binder?
A: 25.8 nM

Q: What about the EC50 [29] of the same binder?
A: 4.4 nM

Q: And the EC50 [30]?
A: 2.6 nM

Q: What about the EC50 [31] of the same binder?
A: 15.7 nM

Q: What about the EC50 [32] of the same binder?
A: 10.6 nM

Q: What about the “Off rate t½” value [33] of the same binder?
A: 24 s

Q: And the “Off rate t½” value [34]?
A: 48 s

Q: And the “Off rate t½” value [35]?
A: 30 s

Q: And the “Off rate t½” value [36]?
A: 42 s

Q: And the “Off rate t½” value [37]?
A: 54 s

Q: What about the “Off rate t½” value [38] of the same binder?
A: 54 s

Q: And the “Off rate t½” value [39]?
A: 36 s

Q: And the “Off rate t½” value [40]?
A: 60 s
